Assays:
[1] = biological target: T1, full-length human Tau (htau40, 441 residues, 2N4R) (human, UniProt P10636-8 1-441); experiment: NMR titration; 1H-15N spectra of 15N-labeled Tau (30-50 μM) with up to 5 equivalents of unlabeled partner, 5 °C, 50 mM sodium phosphate/10 mM NaCl/1 mM DTT pH 6.8; conditions: both partners purified
T1 construct: 15N-labelled for the NMR titrations; also called 2N4R Tau; source: E. coli BL21 (DE3), vector pNG2, purified (boiling, SP-Sepharose)

human full-length Hsp90β = biological target: T2, human full-length Hsp90β (human, UniProt P08238 1-724); experiment: paramagnetic NMR (pseudo-contact shifts); 80 μM Ile-labelled Hsp90 with 40 μM CLaNP-7-tagged FKBP51 mutant (Tm3+ against Lu3+), 25 °C, 50 mM sodium phosphate/300 mM NaCl pH 7.2 in D2O; conditions: both partners purified
T2 construct: Human Hsp90β (heat-shock protein 90 beta), full length, dimer; For NMR, Ile δ1 methyl-labelled in a deuterated background or unlabelled; nothing is said for Hsp90; also called heat-shock protein 90; Hsp90 dimer; source: E. coli BL21 (DE3) or Rosetta 2 (DE3), purified (Ni-NTA, SEC)
T2 sequence (P08238 whole entry): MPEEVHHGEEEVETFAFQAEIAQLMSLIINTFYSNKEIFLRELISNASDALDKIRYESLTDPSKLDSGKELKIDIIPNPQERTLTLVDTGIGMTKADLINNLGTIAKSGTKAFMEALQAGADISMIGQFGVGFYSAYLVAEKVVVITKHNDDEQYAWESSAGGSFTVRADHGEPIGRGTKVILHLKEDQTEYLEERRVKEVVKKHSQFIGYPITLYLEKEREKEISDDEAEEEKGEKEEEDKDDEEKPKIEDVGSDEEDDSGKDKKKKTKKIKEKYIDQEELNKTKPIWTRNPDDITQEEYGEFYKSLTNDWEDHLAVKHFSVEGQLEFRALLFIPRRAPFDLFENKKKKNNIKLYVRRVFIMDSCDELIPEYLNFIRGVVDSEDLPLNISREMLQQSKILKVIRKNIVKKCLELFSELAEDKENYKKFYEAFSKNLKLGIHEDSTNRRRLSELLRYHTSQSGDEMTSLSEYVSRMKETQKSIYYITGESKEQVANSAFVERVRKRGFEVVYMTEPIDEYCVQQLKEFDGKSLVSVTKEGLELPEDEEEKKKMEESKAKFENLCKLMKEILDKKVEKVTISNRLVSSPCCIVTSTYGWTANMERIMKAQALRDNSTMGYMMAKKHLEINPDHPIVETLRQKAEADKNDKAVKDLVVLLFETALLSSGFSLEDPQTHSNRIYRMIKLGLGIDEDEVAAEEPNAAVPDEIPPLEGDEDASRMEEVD

T1 sequence (P10636 other isoform, or with tags, fused parts or gaps): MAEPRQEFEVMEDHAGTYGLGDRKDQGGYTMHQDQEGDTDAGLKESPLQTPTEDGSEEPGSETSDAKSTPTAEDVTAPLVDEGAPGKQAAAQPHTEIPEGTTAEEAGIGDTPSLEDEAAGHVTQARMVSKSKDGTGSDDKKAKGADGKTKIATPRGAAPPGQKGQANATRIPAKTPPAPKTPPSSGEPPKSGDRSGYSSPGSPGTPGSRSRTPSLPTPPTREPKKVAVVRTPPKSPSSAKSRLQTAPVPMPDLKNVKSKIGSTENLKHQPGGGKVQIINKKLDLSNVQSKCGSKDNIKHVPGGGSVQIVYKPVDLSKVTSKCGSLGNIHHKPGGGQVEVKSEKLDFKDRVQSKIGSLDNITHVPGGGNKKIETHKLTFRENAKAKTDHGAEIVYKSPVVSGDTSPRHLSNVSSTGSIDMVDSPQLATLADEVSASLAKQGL

binding result [1]	binding result (human full-length Hsp90β)	Binder
binds		full-length human FKBP51 (natural protein, UniProt Q13451 1-457, looked up, For NMR, Leu/Val or Ala/Met methyl-labelled or unlabelled; also called PPIase; source: E. coli BL21 (DE3) or Rosetta 2 (DE3), purified (Ni-NTA, HRV3C cut, SEC)) MTTDEGAKNNEESPTATVAEQGEDITSKKDRGVLKIVKRVGNGEETPMIGDKVYVHYKGKLSNGKKFDSSHDRNEPFVFSLGKGQVIKAWDIGVATMKKGEICHLLCKPEYAYGSAGSLPKIPSNATLFFEIELLDFKGEDLFEDGGIIRRTKRKGEGYSNPNEGATVEIHLEGRCGGRMFDCRDVAFTVGEGEDHDIPIGIDKALEKMQREEQCILYLGPRYGFGEAGKPKFGIEPNAELIYEVTLKSFEKAKESWEMDTKEKLEQAAIVKEKGTVYFKGGKYMQAVIQYGKIVSWLEMEYGLSEKESKASESFLLAAFLNLAMCYLKLREYTKAVECCDKALGLDSANEKGLYRRGEAQLLMNEFESAKGDFEKVLEVNPQNKAARLQISMCQKKAKEHNERDRRIYANMFKKFAEQDAKEEANKAMGKKTSEGVTNEKGTDSQAMEEEKPEGHV
	binds	CLaNP-7-tagged FKBP51 C176S/C183S/C215S/C339S/C394S/E110C (natural protein, human, UniProt Q13451 1-457, looked up, CLaNP-7 lanthanide tag (Tm3+ or Lu3+) attached to C107 and C110 (E110C) in FK1, Human FKBP51, full length, with E110C and all cysteines other than C107 removed; also called FKBP51_(C176S/C183S/C215S/C339S/C394S/E110C)-CLaNP-7; source: E. coli, purified as the wild-type protein, tagged with CLaNP-7) MTTDEGAKNNEESPTATVAEQGEDITSKKDRGVLKIVKRVGNGEETPMIGDKVYVHYKGKLSNGKKFDSSHDRNEPFVFSLGKGQVIKAWDIGVATMKKGEICHLLCKPCYAYGSAGSLPKIPSNATLFFEIELLDFKGEDLFEDGGIIRRTKRKGEGYSNPNEGATVEIHLEGRSGGRMFDSRDVAFTVGEGEDHDIPIGIDKALEKMQREEQSILYLGPRYGFGEAGKPKFGIEPNAELIYEVTLKSFEKAKESWEMDTKEKLEQAAIVKEKGTVYFKGGKYMQAVIQYGKIVSWLEMEYGLSEKESKASESFLLAAFLNLAMCYLKLREYTKAVESCDKALGLDSANEKGLYRRGEAQLLMNEFESAKGDFEKVLEVNPQNKAARLQISMSQKKAKEHNERDRRIYANMFKKFAEQDAKEEANKAMGKKTSEGVTNEKGTDSQAMEEEKPEGHV

— publication PMC6208366, “Structure and pro-toxic mechanism of the human Hsp90/PPIase/Tau complex” (Nature Communications, 2018)
